# T1: human CD131 (human, UniProt P32927 17-897)
# T1 sequence: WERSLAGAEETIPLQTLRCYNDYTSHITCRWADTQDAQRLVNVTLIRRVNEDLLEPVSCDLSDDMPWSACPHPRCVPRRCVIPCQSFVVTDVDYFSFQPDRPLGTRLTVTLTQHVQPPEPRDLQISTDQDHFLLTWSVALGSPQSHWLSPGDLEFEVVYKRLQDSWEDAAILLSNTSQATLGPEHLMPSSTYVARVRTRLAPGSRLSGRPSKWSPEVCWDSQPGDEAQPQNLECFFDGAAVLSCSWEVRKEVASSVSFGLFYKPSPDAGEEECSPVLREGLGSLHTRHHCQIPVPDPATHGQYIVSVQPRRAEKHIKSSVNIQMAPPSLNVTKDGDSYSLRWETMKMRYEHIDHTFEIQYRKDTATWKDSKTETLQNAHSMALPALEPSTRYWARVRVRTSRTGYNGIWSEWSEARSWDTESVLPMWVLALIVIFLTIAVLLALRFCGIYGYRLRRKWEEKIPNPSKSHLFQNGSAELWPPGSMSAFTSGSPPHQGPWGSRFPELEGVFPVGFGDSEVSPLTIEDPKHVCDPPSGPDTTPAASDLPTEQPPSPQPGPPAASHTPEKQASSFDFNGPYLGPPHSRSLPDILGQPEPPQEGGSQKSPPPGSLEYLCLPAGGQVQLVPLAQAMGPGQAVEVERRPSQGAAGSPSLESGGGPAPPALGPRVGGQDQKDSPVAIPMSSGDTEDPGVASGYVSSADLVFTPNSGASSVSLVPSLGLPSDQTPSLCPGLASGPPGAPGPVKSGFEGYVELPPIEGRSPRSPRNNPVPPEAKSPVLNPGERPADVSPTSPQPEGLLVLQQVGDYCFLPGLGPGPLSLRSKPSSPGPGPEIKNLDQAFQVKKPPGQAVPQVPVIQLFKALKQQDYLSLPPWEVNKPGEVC
# Target: T1, human CD131
# Assay: cell-based or functional assay
row,Binder,"IC50 GM-CSF, TF-1 proliferation [nM]"
1,"9A2-VR39.122 (antibody, V domains shown) VH: EVQLLESGGGLVQPGGSLRLSCAASAGFFEYYHMLWVRQAPGKGLEWVSSINGRGRVTYYADSVKGRFTISRDNSKNTLYLQMNSLRAEDTAVYYCARFYDSFFDIWGQGTMVTVSS VL: DIQMTQSPSSVSASVGDRVTITCRASQGISSWLAWYQQKPGKAPKLLIYAASSLQSGVPSRFSGSGSGTDFTLTISSLQPEDFATYYCQQANSFPITFGQGTRLEIKR",15
2,"9A2-VR39.174 (antibody, V domains shown) VH: EVQLLESGGGLVQPGGSLRLSCAASGFTFSHYHMLWVRQAPGKGLEWVSSINGRGRVTYYARDHKKRFTISRDNSKNTLYLQMNSLRAEDTAVYYCARFYDSFFDIWGQGTMVTVSS VL: DIQMTQSPSSVSASVGDRVTITCRASQGISSWLAWYQQKPGKAPKLLIYAASSLQSGVPSRFSGSGSGTDFTLTISSLQPEDFATYYCQQANSFPITFGQGTRLEIKR",0.64
3,"9A2-VR24.78 (antibody, V domains shown) VH: EVQLLESGGGLVQPGGSLRLSCAASGFTFPWYRVHWVRQAPGKGLEWVSSIHTHRNYTYYADSVKGRFTISRDNSKNTLYLQMNSLRAEDTAVYYCARFYDSFFDIWGQGTMVTVSS VL: DIQMTQSPSSVSASVGDRVTITCRASQGISSWLAWYQQKPGKAPKLLIYAASSLQSGVPSRFSGSGSGTDFTLTISSLQPEDFATYYCQQANSFPITFGQGTRLEIKR",0.65
4,"9A2-VR24.81 (antibody, V domains shown) VH: EVQLLESGGGLVQPGGSLRLSCAASGFTFPWYRVHWVRQAPGKGLEWVSSIHTHRNYTYYADSVKGRFTISRDNSKNTLYLQMNSLRAEDTAVYYCARFYDSFFDIWGQGTMVTVSS VL: DIQMTQSPSSVSASVGDRVTITCRASQGISSWLAWYQQKPGKAPKLLIYAASSLQSGVPSRFSGSGSGTDFTLTISSLQPEDFATYYCQQANSFPITFGQGTRLEIKR",0.48
5,"9A2-VR39.162 (antibody, V domains shown) VH: EVQLLESGGGLVQPGGSLRLSCAASGFTFSHYHMLWVRQAPGKGLEWVSSINGRGRVPQMAQEVKGRFTISRDNSKNTLYLQMNSLRAEDTAVYYCARFYDSFFDIWGQGTMVTVSS VL: DIQMTQSPSSVSASVGDRVTITCRASQGISSWLAWYQQKPGKAPKLLIYAASSLQSGVPSRFSGSGSGTDFTLTISSLQPEDFATYYCQQANSFPITFGQGTRLEIKR",3.6
6,"9A2-VR24.76 (antibody, V domains shown) VH: EVQLLESGGGLVQPGGSLRLSCAASGFTFPWYRVHWVRQAPGKGLEWVSSIQTHGVWTYYADSVKGRFTISRDNSKNTLYLQMNSLRAEDTAVYYCARFYDSFFDIWGQGTMVTVSS VL: DIQMTQSPSSVSASVGDRVTITCRASQGISSWLAWYQQKPGKAPKLLIYAASSLQSGVPSRFSGSGSGTDFTLTISSLQPEDFATYYCQQANSFPITFGQGTRLEIKR",12.4
7,"9A2-VR39.148 (antibody, V domains shown) VH: EVQLLESGGGLVQPGGSLRLSCAASGFTFSHYHMLWVRQAPGKGLEWVSSINGRGRVTHVAQEVKGRFTISRDNSKNTLYLQMNSLRAEDTAVYYCARFYDSFFDIWGQGTMVTVSS VL: DIQMTQSPSSVSASVGDRVTITCRASQGISSWLAWYQQKPGKAPKLLIYAASSLQSGVPSRFSGSGSGTDFTLTISSLQPEDFATYYCQQANSFPITFGQGTRLEIKR",1.12
8,"9A2-VR39.139 (antibody, V domains shown) VH: EVQLLESGGGLVQPGGSLRLSCAASPRWEWNYHMLWVRQAPGKGLEWVSSINGRGRVTYYADSVKGRFTISRDNSKNTLYLQMNSLRAEDTAVYYCARFYDSFFDIWGQGTMVTVSS VL: DIQMTQSPSSVSASVGDRVTITCRASQGISSWLAWYQQKPGKAPKLLIYAASSLQSGVPSRFSGSGSGTDFTLTISSLQPEDFATYYCQQANSFPITFGQGTRLEIKR",21.5
9,"9A2-VR24.24 (antibody, V domains shown) VH: EVQLLESGGGLVQPGGSLRLSCAASGFTFPWYRVHWVRQAPGKGLEWVSSIRTDGTWTYYADSVKGRFTISRDNSKNTLYLQMNSLRAEDTAVYYCARFYDSFFDIWGQGTMVTVSS VL: DIQMTQSPSSVSASVGDRVTITCRASQGISSWLAWYQQKPGKAPKLLIYAASSLQSGVPSRFSGSGSGTDFTLTISSLQPEDFATYYCQQANSFPITFGQGTRLEIKR",1.09
10,"9A2-VR24.82 (antibody, V domains shown) VH: EVQLLESGGGLVQPGGSLRLSCAASGFTFPWYRVHWVRQAPGKGLEWVSSIKHGGRYTYYADSVKGRFTISRDNSKNTLYLQMNSLRAEDTAVYYCARFYDSFFDIWGQGTMVTVSS VL: DIQMTQSPSSVSASVGDRVTITCRASQGISSWLAWYQQKPGKAPKLLIYAASSLQSGVPSRFSGSGSGTDFTLTISSLQPEDFATYYCQQANSFPITFGQGTRLEIKR",3.99
11,"9A2-VR24.10 (antibody, V domains shown) VH: EVQLLESGGGLVQPGGSLRLSCAASGFTFPWYRVHWVRQAPGKGLEWVSSIHTGSQWTYYADSVKGRFTISRDNSKNTLYLQMNSLRAEDTAVYYCARFYDSFFDIWGQGTMVTVSS VL: DIQMTQSPSSVSASVGDRVTITCRASQGISSWLAWYQQKPGKAPKLLIYAASSLQSGVPSRFSGSGSGTDFTLTISSLQPEDFATYYCQQANSFPITFGQGTRLEIKR",9.52
12,"9A2-VR24.12 (antibody, V domains shown) VH: EVQLLESGGGLVQPGGSLRLSCAASGFTFPWYRVHWVRQAPGKGLEWVSSIHTHYQYTYYADSVKGRFTISRDNSKNTLYLQMNSLRAEDTAVYYCARFYDSFFDIWGQGTMVTVSS VL: DIQMTQSPSSVSASVGDRVTITCRASQGISSWLAWYQQKPGKAPKLLIYAASSLQSGVPSRFSGSGSGTDFTLTISSLQPEDFATYYCQQANSFPITFGQGTRLEIKR",0.93
13,"9A2-VR24.07 (antibody, V domains shown) VH: EVQLLESGGGLVQPGGSLRLSCAASGFTFPWYRVHWVRQAPGKGLEWVSSIHTHRNSTYYADSVKGRFTISRDNSKNTLYLQMNSLRAEDTAVYYCARFYDSFFDIWGQGTMVTVSS VL: DIQMTQSPSSVSASVGDRVTITCRASQGISSWLAWYQQKPGKAPKLLIYAASSLQSGVPSRFSGSGSGTDFTLTISSLQPEDFATYYCQQANSFPITFGQGTRLEIKR",1.17
14,"9A2-VR39.77 (antibody, V domains shown) VH: EVQLLESGGGLVQPGGSLRLSCAASGFTFSHYHMLWVRQAPGKGLEWVSSINGRGRVTYYQWPMNKRFTISRDNSKNTLYLQMNSLRAEDTAVYYCARFYDSFFDIWGQGTMVTVSS VL: DIQMTQSPSSVSASVGDRVTITCRASQGISSWLAWYQQKPGKAPKLLIYAASSLQSGVPSRFSGSGSGTDFTLTISSLQPEDFATYYCQQANSFPITFGQGTRLEIKR",2.03
15,"9A2-VR24.19 (antibody, V domains shown) VH: EVQLLESGGGLVQPGGSLRLSCAASGFTFPWYRVHWVRQAPGKGLEWVSSIHTQSKWTYYADSVKGRFTISRDNSKNTLYLQMNSLRAEDTAVYYCARFYDSFFDIWGQGTMVTVSS VL: DIQMTQSPSSVSASVGDRVTITCRASQGISSWLAWYQQKPGKAPKLLIYAASSLQSGVPSRFSGSGSGTDFTLTISSLQPEDFATYYCQQANSFPITFGQGTRLEIKR",0.98
16,"9A2-VR39.140 (antibody, V domains shown) VH: EVQLLESGGGLVQPGGSLRLSCAASAYSEMWYHMLWVRQAPGKGLEWVSSINGRGRVTYYADSVKGRFTISRDNSKNTLYLQMNSLRAEDTAVYYCARFYDSFFDIWGQGTMVTVSS VL: DIQMTQSPSSVSASVGDRVTITCRASQGISSWLAWYQQKPGKAPKLLIYAASSLQSGVPSRFSGSGSGTDFTLTISSLQPEDFATYYCQQANSFPITFGQGTRLEIKR",42.5
17,"9A2-VR39.93 (antibody, V domains shown) VH: EVQLLESGGGLVQPGGSLRLSCAASGFTFSHYHMLWVRQAPGKGLEWVSSINGRGRVTYYNPAWKKRFTISRDNSKNTLYLQMNSLRAEDTAVYYCARFYDSFFDIWGQGTMVTVSS VL: DIQMTQSPSSVSASVGDRVTITCRASQGISSWLAWYQQKPGKAPKLLIYAASSLQSGVPSRFSGSGSGTDFTLTISSLQPEDFATYYCQQANSFPITFGQGTRLEIKR",0.28
18,"9A2-VR24.04 (antibody, V domains shown) VH: EVQLLESGGGLVQPGGSLRLSCAASGFTFPWYRVHWVRQAPGKGLEWVSSIHTHRHITYYADSVKGRFTISRDNSKNTLYLQMNSLRAEDTAVYYCARFYDSFFDIWGQGTMVTVSS VL: DIQMTQSPSSVSASVGDRVTITCRASQGISSWLAWYQQKPGKAPKLLIYAASSLQSGVPSRFSGSGSGTDFTLTISSLQPEDFATYYCQQANSFPITFGQGTRLEIKR",0.7
19,"9A2-VR39.177 (antibody, V domains shown) VH: EVQLLESGGGLVQPGGSLRLSCAASGFTFSHYHMLWVRQAPGKGLEWVSSINGRGRVTYYALEYKKRFTISRDNSKNTLYLQMNSLRAEDTAVYYCARFYDSFFDIWGQGTMVTVSS VL: DIQMTQSPSSVSASVGDRVTITCRASQGISSWLAWYQQKPGKAPKLLIYAASSLQSGVPSRFSGSGSGTDFTLTISSLQPEDFATYYCQQANSFPITFGQGTRLEIKR",0.52

# Reference: US20190062438A1 (CSL, published 2019)
